Reference: patent US20250134019A1, “TRIKETONE DIOXYGENASE VARIANTS FOR HERBICIDE TOLERANCE” (Monsanto Technology LLC, priority 2022, published 2025)

Key:
[1] = Specific activity of purified TDO proteins, second hydroxylation of mesotrione; type: biochemical; conditions: FIG. 8
Excerpt: Activity was expressed as nmol/min/mg protein and was the mean of three separate assays on the same enzyme sample (technical reps).
To test the hypothesis, the four amino acids of sorghum TDO corresponding to amino acid positions 230, 301, 332, and 335 in rice TDO were replaced with those of rice TDO. The corn, rice, sorghum, and the modified sorghum TDO genes were cloned into a pET28 vector for E. coli expression with His6 tag in the N-terminus. Subsequently, the proteins were expressed and purified by affinity chromatography. BL21-CodonPlus (DE3)-RIPL E. coli cells (Stratagene) were used for expression. Cells transformed with expression vector were grown in autoinduction media (AIM) supplemented with 100 μg mL-1 kanamycin and 34 μg mL-1 chloramphenicol.
TDO proteins used in this study were expressed in AIM cells using an auto-induction system as described by Studier (2014). Briefly, the recombinant cultures were grown at 37° C. for 3 hours and then 20° C. for one or two days. Cells were harvested by centrifugation and frozen at −80° C. The pellet was resuspended in lysis buffer (Bper and Yper [Pierce] with ratio 3 to 1, 25 mM Tris-HCl, 300 mM NaCl, 10 mM imidazole, pH 8.0). 150 mM ferric ammonium citrate (1000X) was added to the lysate to a final concentration of 150 µM and incubated on ice for 20 minutes. The lysate was centrifuged to clarify the supernatant. Clear supernatant was loaded onto a 5 mL Ni column connected to AKTA Express (GE Healthcare). […] Protein concentrations were determined spectrophotometrically based on their calculated molar absorption extinction coefficients at 280 nm.
TDO activity was measured by the second hydroxylation of mesotrione. For routine activity measurements of TDO and determining the kinetic properties of the second hydroxylation, the continuous change in A330, which is specific to the second hydroxylation and subsequent non-enzymatic water removal (i.e. the conversion of hydroxy-mesotrione to oxy-mesotrione), was monitored. […] The reaction proceeded until the maximum A330 was obtained (usually 20-120 minutes depending upon the concentration of mesotrione) and the linear portion of the curve was determined by visual inspection. […]
For the activity calculation, aliquots of the reaction were removed at various time points during the reaction and heated at 95° C. to halt the reaction. The reaction mixtures were analyzed by HPLC and mass spectrophotometry. By product conversation followed by peak integration on HPLC, a linear plot was obtained and the extinction co-efficient delta between the substrate (mesotrione) and the second product (oxy-mesotrione) was obtained according to the equation ΔA330=(εp-εs)*bΔp where ΔA330 is the change of absorbance at 330 nm and b is the light path.

[2] = tested on: transgenic soybean plants; assay: Mesotrione injury of R0 transgenic soybean plants expressing TDO homologs; type: in vivo; conditions: promoter Constitutive 1, 3' UTR A; 210 g a.i./ha mesotrione at V3-V4, rated 7-14 days after treatment; mean of all tested events
Description: Plant expression vectors comprising the selected TDO homologs under the control of one of two constitutive promoters were transformed into soybean via an Agrobacterium tumefaciens-mediated method. Following Agrobacterium transformation, R0 transgenic soybean plants containing a single copy of the transgene were identified through molecular characterization and segregation analysis. Transgenic and wild-type (control) plants were grown in 6-inch pots filled with BM7 soilless mix in a growth chamber under the conditions of 28° C./23° C. (light/dark) and a 16 hr light/8 hr dark photoperiod. Plants were fertilized with 15-5-15 liquid fertilizer at the V3-V4 growth stage and treated with 210 g a.i./ha mesotrione (1X=105 g a.i./ha; Callisto®, Syngenta in 1% crop oil). Plants were visually rated 7-14 days after treatment on a scale of 0% to 100%, with 0%=no injury and 100%=plant death, relative to the wild-type controls. The results summarized in Table 2 represent the mean of all tested events (10-15) for each construct.

transgenic cotton plants = assay: Mesotrione treatment of cotton plants expressing TDO variants, crop injury; type: in vivo; conditions: for Crop Injury (%), 210 g/ha (2X) Mesotrione / Crop Injury (%), 840 g/ha (8X) Mesotrione: R2 cotton sprayed at V3
Description: Cotton is a crop of interest that is often exposed to high temperature growing conditions and thus, selected TDO variants were tested in cotton. Three TDO variants, D08, TDO_6, and TDO_8 were transformed into cotton (along with the Os.TDO control) using similar expression elements in single-cassette vectors or as part of multi-cassette vectors. R2 transgenic cotton plants were then screened for tolerance to mesotrione. Sixteen plants from two events each per construct were sprayed with two rates (2X and 8X) of mesotrione at V3 stage under normal (80° F.) and hot (100° F.) growing conditions. In addition, the effect of heat treatment on TDO accumulation in cotton plants were measured by ELISA. Cotton plants were planted and grown under normal greenhouse conditions (80° F. day/70° F. night) until V3 growth stage. Half of the plants were then moved to a higher temperature growth chamber (100° F. day/82° F. night) for the heat treatment, whereas the remaining half of the plants stayed in the same greenhouse (80° F. day/70° F. night). At day 3 after the plants were placed under different temperature conditions, leaf samples were collected for TDO protein measurement. The plants in 100° F. growth chamber and in 80° F. greenhouse were both sprayed with 2X mesotrione (210 g a.i./ha). Leaf samples were collected again 7 days after mesotrione treatment (DAT: Days After Treatment) for protein assay. Table 5 compares protein levels of the TDO variants in transgenic cotton plants grown under the two tested conditions. The protein levels for the TDO variants were measured at three time points for plants: 1) just before entering the high temperature treatment, 2) three days following placement into control (normal growth temperature) or high temperature (100° F.), and 3) 7 days after a 2X mesotrione spray.

[3] = tested on: transgenic soybean plants; assay: TDO protein level (ELISA) and mesotrione injury of transgenic soybean at normal vs elevated temperature; type: in vivo; conditions: elevated temperature (99° F.)
Description: Os.TDO-transgenic soybean plants and wild-type control plants were grown at 80° F. until V2 growth stage, then half of the plants were transferred to 99° F. After 3 days, leaf samples were harvested to determine TDO protein levels, and plants were then treated with 2X and 8X rates of mesotrione. Crop injury ratings were taken 11 days after mesotrione treatment. […] The black bars represent TDO protein levels in parts per million per dry weight; the gray bars represent plant injury rate (%) to 2X and 8X mesotrione treatments.
Soybeans were planted and grown under typical greenhouse conditions (85° F. day, 75° F. night) until approximately V3 growth stage. At that time, half of the plants were moved to a higher temperature growth chamber (99° F. day, 82° F. night; 60% relative humidity) for three days prior to leaf sample collection and a spray application of 4X rate mesotrione. Mesotrione was applied to both greenhouse and growth chamber plants. Visual injury ratings were taken at 7 days after treatment. […] The gray bars represent mesotrione injury ratings at 85° F. and the black bars represent mesotrione injury ratings at 99° F. for these transgenic plants.
The TDO variants were grown at 85° F. (gray) vs 99° F. (black). […]
The enzyme activity was measured at room temperature for the hydroxylation of mesotrione, and was defined as Kcat/Km, M-1 sec-1 (specificity constant). […]

[4] = tested on: transgenic soybean plants; assay: Field testing of variant D08 for mesotrione tolerance; type: in vivo; conditions: field setting, no control of temperature
Description: Since this testing was conducted in the field, there was no control on the temperature ranges the plants were exposed to.

[5] = specific activity of second hydroxylation

B1: Sb.TDO: TDO homolog from Sorghum bicolor, SEQ ID NO:6 (protein)
chain: MAGESWKVPTPVKDLAALVEEPPSQFVQREEDRPGSLMLAADMPDPLPIVDLDKMSTADEATKLRSALQTWGLFLATNHGIDVSLMEDLMKASREFFNQPLQERQKYSNLREGTRFQLEGYGSDPVIAQDHILDWSDRLQLKVEPEDERNLAQWPKHPESFRDLLHEYATKTKTVMVKILRAMAKTLELDEEDFIDQIGGRPQAYARFNYYPPCPRPELVLGIKAHSDGPLLTVLLVDREVGGLQIQRENKWFNVPSIPHALVINLGDSLEIMSNGIFKSPVHRVVTNAEKERISLAMLYAVQRDNVLEPAPGLLDEKRPAKYRRITEAHFLEGVKEHFSKGMRMIETLKI
modifications: Sorghum bicolor
[1]; purified His6-tagged protein from E. coli
  specific activity of the second hydroxylation: not significantly different from the blank
[2]
  % Injury: 35%

B2: SwM: Sb.TDO variant SwM, SEQ ID NO:48, substitutions P230T-A301S-L332R-V335I (protein)
chain: MAGESWKVPTPVKDLAALVEEPPSQFVQREEDRPGSLMLAADMPDPLPIVDLDKMSTADEATKLRSALQTWGLFLATNHGIDVSLMEDLMKASREFFNQPLQERQKYSNLREGTRFQLEGYGSDPVIAQDHILDWSDRLQLKVEPEDERNLAQWPKHPESFRDLLHEYATKTKTVMVKILRAMAKTLELDEEDFIDQIGGRPQAYARFNYYPPCPRPELVLGIKAHSDGTLLTVLLVDREVGGLQIQRENKWFNVPSIPHALVINLGDSLEIMSNGIFKSPVHRVVTNAEKERISLAMLYSVQRDNVLEPAPGLLDEKRPAKYRRITEAHFRAGIKEHFSKGMRMIETLKI
modifications: TDO variant sequence
[1]; [5]
  activity compared to the rice TDO protein: about 17%

B3: D08: Os.TDO variant D08, SEQ ID NO:18, 20 amino acid changes relative to Os.TDO (protein)
chain: MADESWRAPALVQELAAKGVEEPPSRYLLREQDRPDVKLVAAELPEPIPVVDLGRLDGAEEATKLRVALQNWGFFLLTNHGIEASLMDDVMNLSREFFNQPIERKQKFSNLIDGKHFQIEGYGTDRVVTQDQVLDWSDRLHLRVEPKEEQDLAFWPDHPESFRDVLHKYASGCKRIRDDIIQAMAKLLELDEDYFLDRFNEAPTFARFNYYPPCPRPDLVFGIRPHSDGGLLTILLVDKDVGGLQVQRDGKWSNVPATPHTLLINLGDTMEVMSNGIFKSPVHRVVTNAEKERISLAMLYSVNDEKDIEPAAGLLDENRPARYRKVSVEEFRAGIFGKFSRGERYIDSLRI
modifications: TDO variant sequence
Transgenic cotton plants; Under 80° F.
  Crop Injury (%), 210 g/ha (2X) Mesotrione: 0%
  Crop Injury (%), 840 g/ha (8X) Mesotrione: 0%
Transgenic cotton plants; Under 100° F.
  Crop Injury (%), 210 g/ha (2X) Mesotrione: 0%
  Crop Injury (%), 840 g/ha (8X) Mesotrione: 0%
Transgenic cotton plants; cotton at the higher temperature
  injury rates relative to Os.TDO controls: trending even lower than the Os.TDO controls
[3]
  injury ratings after mesotrione application relative to Os.TDO control: possibly trending lower injury relative to the Os.TDO control
[4]
  tolerance to mesotrione spray treatment: good tolerance

B4: Zm.TDO: TDO homolog from Zea mays, SEQ ID NO:4 (protein)
chain: MADESWRVPTPVQELAATLEEPPSRYVLQEKDRRGSPLVADDMPEPLPVINLSRLSEDATEAAKLESALQSWGLVLVTNHGIETSLMDGVMDASREFFRQPLEEKQKYSNLIDGKRFQVEGYGNDRVATERQILNWNDRLHLKVAPEDERDYTHWPKHPESFRDVLHEYALETKRVRDGIFRATAKILELDEDHFVRLISDRAAAFARFNYYPPCPRPDLVNGVQPHSDAGVLTILLVDKDVRGLQVQRDGVWYNVPPMPYTLLINLGDIMEIMSNGILKSPVHRVVTNAEKERISLAVFYGVGAENALEPAAGLLDEKRPARYRKISMTDFIAGIHGQFSRGTRFIESLKI
modifications: Zea mays
[1]; [5]
  activity lower than rice TDO: about 30%
[2]
  % Injury: 15%
